Laboratory results: patent publication US20030147810A1

Columns and labels:
[1] = biological target: secreted alkaline phosphatase fused to the Swedish mutation of the BACE cleavage site in APP (…) and the KDEL sequence (UniProt P05187); assay: cell-based or functional assay
[2] = biological target: secreted alkaline phosphatase with the wild type BACE cleavage site of amyloid precursor and the KDEL sequence (UniProt P05187); assay: cell-based or functional assay

BACE (beta-site APP-cleaving enzyme)
alkaline phosphatase activity in the conditioned media of transfected neuro-2 cells (chemiluminescence, photons) [1]: 3.46e+06 photons | efficiency of secretion: alkaline phosphatase activity in the conditioned media of transfected neuro-2 cells, percent of control (no KDEL) [1]: 66 % of control | alkaline phosphatase activity in the conditioned media of transfected neuro-2 cells (chemiluminescence, photons) [2]: 83700 photons | alkaline phosphatase activity in the conditioned media of transfected neuro-2 cells, percent of control (no KDEL) [2]: 1.6 % of control
